Laboratory results taken from US20120108492A1, “LIGAND-SPECIFIC NON-ANTIBODY COMPOUNDS THAT INHIBIT CR2 ACTIVATION AND METHODS OF USE THEREOF” (The Regents of the University of Colorado, priority 2008, published 2012).

Molecular target: T1, wild-type MBP-CR2 SCR1-2 (human), P20023
T1 chain: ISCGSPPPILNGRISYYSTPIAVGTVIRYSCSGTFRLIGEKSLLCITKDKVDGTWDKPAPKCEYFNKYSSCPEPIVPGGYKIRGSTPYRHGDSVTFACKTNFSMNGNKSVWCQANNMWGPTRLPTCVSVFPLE
Assay: competition ELISA: C3d on plate, MBP-CR2 SCR1-2 with increasing peptide, ⅓×PBS

Binder | IC50
APAHLSSQ (modifications not checked) [control peptide] | 700 µM
ISTSNPRH (modifications not checked) [peptide C3dp2.2] | 190 µM
DPKNHVH (modifications not checked) [peptide C3dcp1.1] | 95 µM
APQALSSQYSRT (modifications not checked) [peptide C3dp1.1] | 70 µM
APQHLSSQYSRT (modifications not checked) [peptide C3dp1] | 100 µM
APQHLSSQ (modifications not checked) [peptide C3dp1.3] | 40 µM
TRSYQSSLHQPA (modifications not checked) [peptide C3dp1.2] | 70 µM
ISTSNPRAASTA (modifications not checked) [peptide C3dp2.1] | 150 µM
IATANPRHHSTA (modifications not checked) [peptide C3dp2.3] | 160 µM
ISTSNPRHHSTA (modifications not checked) [peptide C3dp2] | 450 µM

Molecular target: T1, wild-type MBP-CR2 SCR1-2 (human), P20023
Assay: not given

Binder | IC50
CSEGSLKGC (modifications not checked) [peptide EBV gp350 cp1] | 150 µM
